30 sequences from the nanobody polyreactivity screen of Harvey et al. (2022) can be followed below.

The data set in a line: yeast display, Sf9 membrane polyspecificity reagent, FACS + sequencing; frameworks hold sequencing errors. An outline of the steps:
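In a synthetic yeast display library (Saccharomyces cerevisiae BJ5465), nanobody expression was induced with galactose for 36–48 hours. FACS gates were set low and high (top ~1%) using anti-HA fluorescence for expression and streptavidin fluorescence for binding of the Sf9 membrane reagent. Each polyreactivity label is drawn from the gate of origin.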
Regarding “QVHLVESGGGLVQAGGSLRLSCAASGFIFYPYAMGWYRQAPGKERELVAAITSSGGSTYYADSVKGRFTISRDNAKNTVYLQMNSLKPEDTAVYYCAAYTSYYGTIIAYRYYYWGQGTQVTVSS”, the “polyreactivity (PSR sort gate)” value is given as “high polyreactivity”. For “QVHLVESGGGLVQAGGSLRLSCAASGFNFLIYAMGWYRQAPGKERELVAAITLRGSGTYYADSVKGRFTISRDNAKNTVYLQMNSLKPEDTAVYDCAAGTARRTYDYWGQGTQVTVSS”, the “polyreactivity (PSR sort gate)” value is “low polyreactivity”. “QVHLVESGGGLVQAGGSLRLSCAASGFTFDFYAMGWYRQAPGKERELVAAISKNDGTTYYADSVKGRFTISRDNAKNTVYLQLNSLKPEDTAVYYCAAESGYPVYTYVSSGDYWGQGTQVTVSS”: the “polyreactivity (PSR sort gate)” value was “low polyreactivity”. With “QVHLVESGGGLVQAGGSLRLSCAASGFTFPHYAMGWYRQAPGKERELVAAISFSGGRTYYADSVKGRFTISRDHSKNTVYVQMNSLKPEDTAVYYCNVPYYSFRELSYYYWGQGTQVTVSS” the entry was “high polyreactivity”.

In the case of “QVHLVESGGGLVQAGGSLRLSCAASGFTFSFYAMGWYRQAPWKEIEFVAAITNSGGSTYYADSVKGRFTISRDNSKNSVYLQMNSLKPEDTAVYYCATKRAWPGYFTYYYWGQGTQVTVSS”, the “polyreactivity (PSR sort gate)” value is “high polyreactivity”.

On to “QVHLVESGGGLVQAGGSLRLSCAASGFTFVQYAMGWYRQAPGKERELVATISKSGGITYYADSVKGRFTISRDNAKNTVYLQMNSLKPEDTSVYYCAAAWYYSSRGFHATWGHDYWGQGTQVTVSS”, for which the “polyreactivity (PSR sort gate)” value was “low polyreactivity”. With “QVHLVESGGGLVQAGGSLRLSCAASGFTFVRYAMGWYRQAPGKERELVASISYSGGSTYYADSVKGRFTISRDNAKNTVYVQMNSLKPEATAVYYCAAVIYRGYYYWGQGTQVTVSS” the entry was “high polyreactivity”. The entry for “QVHLVESGGGLVQAGGSLRLSCAASGFTFYQYAMGWYRQAPGKERELVAAITASGGSTYYADSVKRRFTISRDNAKNTVYLQMNSLKPEDTAVYYCAAERYFVLYRYYSYAYYYWGQGTQVTVSS” is “high polyreactivity”; for “QVHLVESGGGLVQAGGSLRLSCAASGFTFYRYAMGWYRQAPGKDRELVAAITWSGGSTYYADSVKGRFTISRDNAKNTVYLQMNSLKPEDTAVYYCAADIYDGGFDYWGQGTQVTVSS” it is “low polyreactivity”; for “QVHLVESGGGLVQAGGSLRLSCAASGFTFYYYAMGWYRQAPGKERELVATISRSVGSTYYADSVKGRFTISRDNAKNTVYLQMNSLKPEDTAVYYCAVGGYLRSVSYIRLGNYYWGQGTQVSVSS” it is “high polyreactivity”.

As to “QVHLVESGGGLVQAGGSLRLSCAASGGNFRPNAMGWYRQAPGKERELVASITRGGSTNYADSVKGRFTISRDNAKNTVYLQMNSLKPEDTAVYYCSALLRYTRTLYYSWGQGTQVTVSS”, the “polyreactivity (PSR sort gate)” value was “high polyreactivity”. The entry for “QVHLVESGGGLVQAGGSLRLSCAASGGTFRVYAMGWYRQAPGKEWELVASISNGGSTNYADSEKGRFTISRDNAKNTVYLQMNSLKPEDTAVYYCAADPSYEVWYYDSPEYNYWGQGTQVTVSS” is “low polyreactivity”; for “QVHLVESGGGLVQAGGSLRLSCAASGGTFYYNTMGWSRQAPGKERELVAAITSGTSTNYADSVKGRFTISRDNAKNTVYLQMNSRIQEDTAVFDCAADPDADDPRRGYDYWGQGTQVTVSS” it is “low polyreactivity”. The entry for “QVHLVESGGGLVQAGGSLRLSCAASGIIFPWTAMGWYRQAPGKERELVAAITSRGSNTYYADSVKGRFTISRDNAKNTVYLQMNSLKPEDTAVYYCAVDSFYYGKYGYWGQGSQVTVSS” is “high polyreactivity”; for “QVHLVESGGGLVQAGGSLRLSCAASGIIFYYNAMGWYRQAPGKERELVAVISSAGNTNYADSVKGRFTISRDNAKNTVYLQMNCLKPEDTAVYYCAAGTISRIDERNYFKMDYWGQGTQVTVSS” it is “low polyreactivity”; for “QVHLVESGGGLVQAGGSLRLSCAASGITFDEYTMGWYRQAPGKERELVAAIDSDGSTTYADSVKGRFTISRDNAKNTVYLQMNSLKPEDSAVYYCNAEHGDFSWHYLLYDYDYWGPGTQVTVSS” it is “low polyreactivity”.

For “QVHLVESGGGLVQAGGSLRLSCAASGITFFWYTMGWYRQAPGKDRELVAAISESGGDTYYADSVKGRFTISRDNAKNTVYLQMKILKPEDTAVYYCAADDSYYGLDYWGQGTQVTVSS”, the “polyreactivity (PSR sort gate)” value is “low polyreactivity”. As to “QVHLVESGGGLVQAGGSLRLSCAASGITFKRYAMGWYRQAPGKERELVAAISDIGGRTYYADSVKGRFTISRDNAKNTVYLQMNSLKPEDTAGYFCAADYYSPVDWYYYWGQGTQVTVSS”, the “polyreactivity (PSR sort gate)” value is listed as “high polyreactivity”. With “QVHLVESGGGLVQAGGSLRLSCAASGITFNSNAMGWYRQAPGKERELVAAITVSGGNTYYADSVKGRFTISRDNAKNTVYLQMYSLKPEDTAVYYCNTASDVSWYVHYYYWRQGTQVTVSS” the entry was “low polyreactivity”; with “QVHLVESGGGLVQAGGSLRLSCAASGITFRTYALGGYRQAPGKERELVAAITRGDSTYYADSVKGRFTISRDNAKNTVYLQMNILKPEDTAVYYCNTETTDFRRYEYWGQGTQVTVSS”, “low polyreactivity”. Turning to “QVHLVESGGGLVQAGGSLRLSCAASGITFSKYEMGWYRQAPWKERELVAAITSTGSTYYADSVKGRFTISRDNAKNTVYLQMNSVKPEDTAVYYCAAERRVFYYCHKLTYWYDYWGQGTQVTVSS”, the “polyreactivity (PSR sort gate)” value was “low polyreactivity”.

As to “QVHLVESGGGLVQAGGSLRLSCAASGITFSPYAMGWSRQAPGKERELVAAISSGSSTKYADSVKGRFTISRDNAKNTVYLQMNSLKPEDTAVYYCAARWFDGYAAYGYWGQGTEVTVSS”, the “polyreactivity (PSR sort gate)” value is “high polyreactivity”. Take “QVHLVESGGGLVQAGGSLRLSCAASGLIFAFYGMGWYRPAPGKERELVASIDKSGGSTYADSVKGRFTISRDNAKNTVYLQMNSLKPEDTAVSYCATNVGGGWAYEYWGQGTQVTVSS”: the “polyreactivity (PSR sort gate)” value was “low polyreactivity”. The entry for “QVHLVESGGGLVQAGGSLRLSCAASGLIFLWNAMGWYRQAPGKERELVAAISWSGGSTYYADSVKGRFTISRDNAKNTVYLQMNSLKPEDTAVYYCIRLLSLEFGFWGQGTQVTVSS” is “high polyreactivity”. The entry for “QVHLVESGGGLVQAGGSLRLSCAASGLTFRYYAMGWYRPAPGKERELVAAISWSGGSTYYADSVKGRFTISRDNAKNTVYLQMNSQKPEDTAVYDCNTVGRSSSLSVFLIGYGYWGQATQVTVSS” is “high polyreactivity”; for “QVHLVESGGGLVQAGGSLRLSCAASGLTFYGNAMGCYRQAPGKERELVAAISSSGGTTYYADSVKGRFTISRDNAKNTVYLQMNSLKPEDTAVYYCAARPSGGFESTRTRDYWGQGTQVTVSS” it is “low polyreactivity”; for “QVHLVESGGGLVQAGGSLRLSCAASGLTFYWYVMGWYRQAPGKERELVAVITGSGGSTYYADSVKGRFTISRDNAKNTVYLQMNSLKPEDTAAYYCARGGRYNRYYYWGQGTQVTVSS” it is “high polyreactivity”. With “QVHLVESGGGLVQAGGSLRLSCAASGNIFGLYAMGWYRQAPWKERELVAAISWRGGNTYYADYVKGRFTISRDNAKNTVYLQMNSLKPEDTAVYYCAAEAGYWYDYWGQGTQVTVSS” the entry was “high polyreactivity”. For the sequence “QVHLVESGGGLVQAGGSLRLSCAASGNIFYPNAMGWYRQAPGKERELVAAISSSGGSTYYADSVKGRFTISRDNAKNTVYLQMNSLKPEDTAVYYCNAYRQYRYDYWGQGTQVTVSS”, the “polyreactivity (PSR sort gate)” value was “low polyreactivity”.

On to “QVHLVESGGGLVQAGGSLRLSCAASGNIIYWNGMGWYRKAPGKEREFVADITASGGSTYYADSVKGRFTISRDNAKNTVYLQMNSLIPEDTAVYYCAAQGVDSYYENDYWGQGTQVTVSS”, for which the “polyreactivity (PSR sort gate)” value is reported as “high polyreactivity”.
